Patent publication US20210379147A1, “METHOD AND SYSTEM FOR TREATING CANCER UTILIZING TINAGL1” (The Trustees of Princeton University, priority 2018, published 2021)

Tests used:
SUM159-M1a tumor cells = experiment: 3D in vitro tumor sphere growth assay; type: cell-based, human
Experimental: To directly test the tumor-specific inhibitory effects of Tinagl1, a 3D in vitro tumor sphere growth assay was performed. Tinagl1-overexpressing SUM159-M1a tumor cells formed significant fewer and smaller spheres.

LM2 cells = experiment: LM2 orthotopic tumors, single or combined agent treatment; type: in vivo, NSG female mice
Experimental: FIG. 17A is an image of WB analyses where NSG female mice were injected with 10^4 LM2 cells by MFP injection, and intravenously treated with the indicated reagents twice per week when tumors reached to 2 mm in dimeter, then after 5 weeks of the treatments, the primary tumors of each group were collected and activation of EGFR and FAK in primary tumor of each group were tested by WB.
FIG. 17B is a graph illustrating tumor volumes of each treatment group from FIG. 17A.
FIG. 17C is a graph, quantifying ex vivo BLI results where lungs in mice from FIG. 17A were collected and spontaneous metastasis was examined at the endpoint.
Two molecular targeting reagents, ATN-161 (ATN) and Erlotinib (Erlo) were employed. ATN is an integrin α5β1 antagonist that inhibits the integrin signaling pathway and slows tumor progression. Erlotinib is a well-established small molecular inhibitor of EGFR and is clinically approved for cancer treatment. Mice orthotopically implanted with LM2 cells were split into 6 groups after the tumors reached 2 mm in diameter and subjected to various single or combined agent treatments twice per week [(1) PBS; (2) ATN 30 μg/mouse; (3) Erlo 100 mg/kg; (4) r-Tinagl1 30 μg/mouse; (5) ATN and Erlo; and (6) ATN, Erlo, and r-Tinagl1]. Referring to FIG. 17A, the inhibition of integrin/FAK and EGFR upon each treatment was validated by western blotting and TIC staining.
For xenograft studies, 8-weeks immunocompromised NOD Scid Gamma (NSG) or immunocompetent FVB females were used. Cells were suspended in 10 μl of PBS for mammary gland injection (MFP), or were suspended in 100 μl of PBS for intravenous injection. For human patient-derived xenograft (PDX, HCL001, kindly provided by Dr. Alana Welm) study, we followed the standard protocol for PDX transplantation, maintenance and digestion of the tumors (DeRose et al., 2011). 2×10^4 cells were suspended in 10 μl of PBS and subjected to MFP injection. For recombinant Tinagl1 (r-Tinagl1), ATN-161, Erlotinib treatments, the mice were injected with 30 μg/mouse, 30 μg/mouse, and 100 mg/kg respectively twice per week via tail-vein. Primary tumors were quantified once per week via caliper measurement. All cell lines used for lung metastasis experiments were stably labeled with a firefly luciferase expressing vector and were monitored by weekly bioluminescent imaging (BLI). At protocol-defined endpoints, lungs were dissected and fixed in bouin's solution and the metastatic lesions were counted.

SUM159-M1a cells = experiment: Cell adhesion assay of SUM159-M1a cells on coated plates (luciferase); type: cell-based, human
Experimental: FIG. 15A is an graph of attached cells quantified by luciferase assay where a 96-well plate was first coated with 10 μg/ml of FN, then SUM159-M1a cells were incubated with 10 μg/ml of indicated antibodies or r-Tinagl1 at 4 C for 30 min, after when cells were seeded on the plate at 30 k cells per well, and 30 min after seeding, the plate was washed with PBS and quantified by luciferase assay.
Integrin α5β1 and αvβ1 are the major receptors for FN, and the interaction between FN and the integrin receptors triggers the activation of the downstream FAK signal pathway. To test whether Tinagl1 may interfere with cell adhesion mediated by the interaction between FN and its receptors integrin α5β1 and αvβ1, SUM159-M1a cells that were pre-incubated with r-Tinagl1 were seeded on the plates coated with FN or other ECM proteins for various period of time (5 min to 2 hours) and the number of adhered cells were quantified after washing. […] Next, SUM159-M1a cells that were pre-incubated with r-Tiangl1 or various integrin-blocking antibodies were seeded on the plate coated with FN, and relative numbers of attached cells were measured.
96-wells were coated with 10 μg/ml of indicated proteins. […] Cells were then lysed, and luciferase activity which represents cell number was measured using the Glomax 96 microplate luminometer (Promega). […]

EGFR and FAK pathways = experiment: EGFR and FAK pathway activation in SUM159-M1a cells on FN (WB, FIG. 12); type: cell-based, human
Experimental: FIG. 12 is an image of WB analyses where a 6-well plate was coated with 10 μg/ml of FN or 10 μg/ml of FN+r-Tinagl1, then SUM159-M1a cells were serum starved for 24 hr, and then seeded on the plate with the media contain 10% FBS and 1 ng/ml of EGF, and then 3 hr after seeding, the cells were treated with […] FAK inhibitor 14 (FAKi) for 2 hr, followed by 1 hr treatment of 100 nM Erlotinib (Erlo), 1 μg/ml r-Tinagl1 alone or combined, and finally the cells were treated with 1 ng/ml of EGF for another 10 min, and then collected for WB analysis.
Furthermore, p-AKT and p-ERK levels were lowered in r-Tinagl1 treated samples that samples treated with either FAK inhibitor 14 (FAKi) and or EGFR inhibitor Erlotinib (Erlo) alone.

EGFR = EGFR (Homo sapiens, UniProt P00533); experiment: EGF-induced EGFR activation in LM2 cells (WB); type: cell-based; settings: 1 hour pre-treatment, then EGF 10 min
Experimental: FIG. 11A is an image of WB analyses where LM2 cells with or without 1 hour pre-treatment of the indicated amount of r-Tinagl1 were then treated with indicated amount of EGF for another 10 min, then lysed.
For WB analysis, cells were collected and lysed with IP lysis buffer described above. After boiled with SDS laemmli buffer, the samples were resolved with SDS-PAGE gel and immunoblotted with standard protocols.
Cells were treated with r-Tinagl1 and the activity of EGFR and integrin/FAK signaling pathways was evaluated. To test EGFR activation, the LM2 cells were subjected to EGF, r-Tinagl1, or EGF/r-Tinagl1 combined treatment. […] Referring to FIGS. 11B and 11C, EGF-dependent activation of EGFR was similarly attenuated in cells expressing Tinagl1 compared to control cells.

B1: r-Tinagl1: full length recombinant human Tinagl1 with 6×His tag at the C-terminus [SEQ ID NO.: 24], expressed in HEK293T cells (protein, listed as Homo sapiens)
chain: MWRCPLGLLLLLPLAGHLALGAQQGRGRRELAPGLHLRGIRDAGGRYCQEQDLCCRGRADDCALPYLGAICYCDLFCNRTVSDCCPDFWDFCLGVPPPFPPIQGCMHGGRIYPVLGTYWDNCNRCTCQENRQWQCDQEPCLVDPDMIKAINQGNYGWQAGNHSAFWGMTLDEGIRYRLGTIRPSSSVMNMHEIYTVLNPGEVLPTAFEASEKWPNLIHEPLDQGNCAGSWAFSTAAVASDRVSIHSLGHMTPVLSPQNLLSCDTHQQQGCRGGRLDGAWWFLRRRGVVSDHCYPFSGRERDEAGPAPPCMMHSRAMGRGKRQATAHCPNSYVNNNDIYQVTPVYRLGSNDKEIMKELMENGPVQALMEVHEDFFLYKGGIYSHTPVSLGRPERYRRHGTHSVKITGWGEETLPDGRTLKYWTAANSWGPAWGERGHFRIVRGVNECDIESFVLGVWGRVGMEDMGHHVDHHHHHH
modifications: C-terminal 6xHis tag
Question: Which “number and size of tumor spheres” value (SUM159-M1a tumor cells) does the source give for B1 here?
Answer: reduced the number and size of tumor spheres

Question: And the primary tumor growth (LM2 cells; LM2, twice per week, ATN 30 μg/mouse, Erlo 100 mg/kg, r-Tinagl1 30 μg/mouse)?
Answer: significantly suppressed primary tumor growth

Question: And the spontaneous lung metastasis (LM2 cells; LM2 tumors, ex vivo BLI at endpoint)?
Answer: reduced spontaneous lung metastasis

Question: And the “cell adhesion on FN or other ECM proteins” value (SUM159-M1a cells; 10 μg/ml r-Tinagl1 pre-incubation, 5 min to 2 hours)?
Answer: blocked cell adhesion mediated by FN but not other ECM proteins

Question: And the “cell adhesion on FN (antibody blocking assay)” value (SUM159-M1a cells; 10 μg/ml, 30 min after seeding)?
Answer: significantly reduced cell adhesion

Question: What about the “activation of EGFR and FAK pathways (p-EGFR, p-FAK, p-ERK, p-AKT)” value (EGFR and FAK pathways; 1 μg/ml r-Tinagl1, 1 hr) of the same molecule?
Answer: inhibited the activation of both EGFR and FAK pathways

Question: What about the “p-AKT and p-ERK levels versus FAKi or Erlo alone” value (EGFR and FAK pathways; FAKi, 100 nM Erlo, 1 μg/ml r-Tinagl1) of the same molecule?
Answer: lowered

Question: What about the “EGF-induced EGFR activation” value (EGFR) of the same molecule?
Answer: dramatically attenuated
